Measurements: patent US20050058645A1 (ZENYTH OPERATIONS, published 2005)

Experiments:
mouse IL-13Rα1 = molecular target: T1, mouse IL-13Rα1 (mouse, UniProt O09030 26-340, limits assumed); assay: Western blot
T1 sequence (looked up): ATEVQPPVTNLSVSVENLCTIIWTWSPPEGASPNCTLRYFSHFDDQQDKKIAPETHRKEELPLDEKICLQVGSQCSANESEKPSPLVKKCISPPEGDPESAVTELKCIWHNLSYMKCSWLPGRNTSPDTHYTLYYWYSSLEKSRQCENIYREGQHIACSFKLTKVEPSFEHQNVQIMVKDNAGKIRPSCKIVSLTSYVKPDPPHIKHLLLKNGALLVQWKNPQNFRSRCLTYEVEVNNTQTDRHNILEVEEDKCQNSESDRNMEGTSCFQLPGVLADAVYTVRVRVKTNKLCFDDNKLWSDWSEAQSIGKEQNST

[1] = molecular target: T2, FLAG-tagged IL-13Rα1-gp130 chimeric receptor (human); assay: Western blot of lysates of transfected COS cells after SDS-PAGE, probed with mAb 1D9
T2 construct: Extracellular domain of human IL-13Rα1 fused to transmembrane and cytoplasmic domains of gp130; On 293A12-derived cells (lines 3.1.2, 3.2.4) in the reporter assay; in COS cell lysates in the Western blot; also called IL-13Rα1-gp130 fusion; IL13Rα1/gp130 chimera
T2 chain: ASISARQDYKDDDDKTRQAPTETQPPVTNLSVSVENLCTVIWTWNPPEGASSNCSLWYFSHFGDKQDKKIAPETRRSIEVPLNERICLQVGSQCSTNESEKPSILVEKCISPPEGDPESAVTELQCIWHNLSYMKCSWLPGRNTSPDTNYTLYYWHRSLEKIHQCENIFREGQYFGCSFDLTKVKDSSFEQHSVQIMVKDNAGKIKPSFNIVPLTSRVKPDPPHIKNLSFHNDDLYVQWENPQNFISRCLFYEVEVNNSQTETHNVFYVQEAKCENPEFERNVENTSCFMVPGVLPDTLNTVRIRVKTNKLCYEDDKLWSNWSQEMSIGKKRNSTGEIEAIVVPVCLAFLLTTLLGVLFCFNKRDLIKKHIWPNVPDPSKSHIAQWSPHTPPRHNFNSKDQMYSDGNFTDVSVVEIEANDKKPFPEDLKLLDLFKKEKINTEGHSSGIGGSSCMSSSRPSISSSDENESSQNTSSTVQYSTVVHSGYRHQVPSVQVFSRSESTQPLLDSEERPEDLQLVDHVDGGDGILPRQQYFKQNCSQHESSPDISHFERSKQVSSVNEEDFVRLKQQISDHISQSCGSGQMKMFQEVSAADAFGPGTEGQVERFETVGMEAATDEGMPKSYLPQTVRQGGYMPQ
Description: FIG. 3 is a photographic representation showing transient expression of chimeric receptor constructs in COS cells. COS cells were transfected with pEFBOS encoding FLAG-tagged IL-13Rα1-gp130, FLAG-tagged IL-4Rα-gp130 (two independent clones) or control β-gal. Cell lysates were recovered at 72 hrs and after SDS-PAGE and Western transfer, probed with either an anti-FLAG antibody or the IL-13Rα1-specific mAb 1D9.

[2] = molecular target: T3, chimeric mouse IL-13Rα1-Fc (mouse; human, UniProt O09030 26-340); assay: Biosensor blocking assay: mouse IL-13Rα1-Fc at 2 ug/ml pre-incubated 1 hour with titrated 1D9, then passed over immobilised IL-13
T3 construct: extracellular domain; Bought (R & D Systems); Preformed disulphide-bonded dimer; also called mIL-13Rα1-Fc; chimeric mouse receptor; not shown: Fc portion of human IgG
T3 sequence (looked up): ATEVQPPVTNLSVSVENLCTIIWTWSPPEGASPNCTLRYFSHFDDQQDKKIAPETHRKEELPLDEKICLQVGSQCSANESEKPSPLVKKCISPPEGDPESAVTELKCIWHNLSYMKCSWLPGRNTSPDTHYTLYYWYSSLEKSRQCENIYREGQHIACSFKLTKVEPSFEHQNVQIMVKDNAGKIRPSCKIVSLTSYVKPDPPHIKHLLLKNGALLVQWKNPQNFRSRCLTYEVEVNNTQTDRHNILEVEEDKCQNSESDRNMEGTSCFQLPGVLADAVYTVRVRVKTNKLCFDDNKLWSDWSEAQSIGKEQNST
Procedure: (§1) Initially mouse mAb 1D9 is tested for its ability to inhibit the interaction of the chimeric human and mouse IL-13Rα1-Fc with IL-13 using both an ELISA- and Biosensor-based approach. […] Identical results are obtained with the ELISA-based assay. 1D9 is a potent inhibitor of the chimeric human receptor, compared with a control mAb, but has no effect on the binding of the chimeric mouse receptor to mouse IL-13 (FIG. 6). The Biosensor study incorporated a 1D9 dose-response analysis and a further dose-response analysis was undertaken using the ELISA.

[3] = molecular target: T4, chimeric human IL-13Rα1-Fc (human, UniProt P78552 22-343); assay: Biosensor blocking assay: human IL-13Rα1-Fc at 2 ug/ml pre-incubated 1 hour with titrated 1D9, then passed over immobilised human IL-13 (the blocked ligand)
T4 construct: Bought (R & D Systems); Extracellular domain of IL-13Rα1 fused to Fc of human IgG; Expressed as preformed disulphide-bonded dimer; also called hIL-13Rα1-Fc; chimeric human receptor; not shown: Fc portion of human IgG
T4 sequence: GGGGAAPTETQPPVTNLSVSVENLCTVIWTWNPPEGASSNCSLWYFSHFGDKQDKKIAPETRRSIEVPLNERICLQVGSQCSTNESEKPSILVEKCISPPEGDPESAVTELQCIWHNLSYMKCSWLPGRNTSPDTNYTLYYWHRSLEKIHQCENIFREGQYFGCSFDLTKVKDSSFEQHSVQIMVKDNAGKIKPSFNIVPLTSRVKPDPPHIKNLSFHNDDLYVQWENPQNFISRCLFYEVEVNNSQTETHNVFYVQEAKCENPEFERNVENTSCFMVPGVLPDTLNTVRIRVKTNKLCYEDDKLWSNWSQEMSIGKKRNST
Procedure: as §1

[4] = molecular target: T4, chimeric human IL-13Rα1-Fc; assay: ELISA; 1D9 dose-response, inhibition of chimeric human IL-13Rα1-Fc binding to plate bound IL-13; ELISA dose-response; inhibition of chimeric human IL-13Rα1-Fc binding to IL-13
Procedure: as §1

- binding result (mouse IL-13Rα1): no binding
- binding result [1]: binds
- binding result [2]: no binding (tested: about 50 µg/ml)
- IC50 (read off the curve) [3]: ~2 µg/mL
- IC50 [4]: ~20 nM
B1: murine monoclonal antibody 1D9 (antibody, IgG1, V domains shown)
VH: EVKLVESGGGLVKPGGSLKLSCAASGFTFSGYGMSWVRQTPEKRLEWVATISGLGGYTYYPDSVKGRFTISRDNAKNTLYLQMSSLRSDDTAFYYCARRFYGDYVGAMDYWGQGTSVTVSS
VL: DILMTQAAFSNPVTLGTSASISCRSSKSLLHSNGITYLYWYLQKPGQSPQLLIYQMSNLASGVPDRFSCSGSGTDFTLSISRVEAEDVGFYYCAQNLELPFTFGSGTKLEIE
notes: Murine hybridoma antibody (ECACC 03032101); also called mAb 1D9; mouse mAb 1D9
